For this assay, the target named is T1, cMyc-tagged Smurf2 (C716G), ligase inactive point mutant (UniProt Q9HAU4 1-748, limits assumed).
T1 construct: whole, on cells; Expressed from pCAGGS in HEK293T cells; co-immunoprecipitation from lysates; also called cMyc-Smurf2 (C716G); c-myc-Smurf2(C716G); not shown: cMyc tag
Nature of the assay: co-immunoprecipitation of TNF-R2 with utr-1 from HEK293T lysates without cotransfected TRAF2, anti-cMyc Western blot. In general terms: A western blot detects proteins with antibodies after separation by electrophoresis.

T1 sequence (Q9HAU4 whole entry C716G): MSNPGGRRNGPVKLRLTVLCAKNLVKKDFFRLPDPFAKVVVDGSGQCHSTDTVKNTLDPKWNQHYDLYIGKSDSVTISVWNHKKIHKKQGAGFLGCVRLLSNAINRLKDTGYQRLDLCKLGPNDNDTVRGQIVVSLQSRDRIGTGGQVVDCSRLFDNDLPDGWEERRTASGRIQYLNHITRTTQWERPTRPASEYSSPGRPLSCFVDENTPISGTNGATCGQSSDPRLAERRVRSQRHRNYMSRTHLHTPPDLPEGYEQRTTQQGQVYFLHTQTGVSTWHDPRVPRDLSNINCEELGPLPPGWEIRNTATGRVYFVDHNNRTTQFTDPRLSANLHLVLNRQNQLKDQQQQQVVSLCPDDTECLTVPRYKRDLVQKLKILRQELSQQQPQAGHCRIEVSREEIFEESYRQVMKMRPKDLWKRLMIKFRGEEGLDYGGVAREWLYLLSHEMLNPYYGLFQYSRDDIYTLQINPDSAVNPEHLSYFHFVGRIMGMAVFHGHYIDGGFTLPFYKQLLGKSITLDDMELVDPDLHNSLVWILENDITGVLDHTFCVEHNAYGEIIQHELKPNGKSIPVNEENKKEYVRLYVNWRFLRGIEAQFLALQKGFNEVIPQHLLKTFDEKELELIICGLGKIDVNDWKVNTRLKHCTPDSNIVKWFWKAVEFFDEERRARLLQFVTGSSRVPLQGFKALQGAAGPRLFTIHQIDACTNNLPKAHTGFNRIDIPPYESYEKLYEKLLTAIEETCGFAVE

B1: TNF receptor 2 (TNF-R2) wild type, pcDNAI-hTNF-R2 (receptor, UniProt P20333 23-461, looked up)
chain: LPAQVAFTPYAPEPGSTCRLREYYDQTAQMCCSKCSPGQHAKVFCTKTSDTVCDSCEDSTYTQLWNWVPECLSCGSRCSSDQVETQACTREQNRICTCRPGWYCALSKQEGCRLCAPLRKCRPGFGVARPGTETSDVVCKPCAPGTFSNTTSSTDICRPHQICNVVAIPGNASMDAVCTSTSPTRSMAPGAVHLPQPVSTRSQHTQPTPEPSTAPSTSFLLPMGPSPPAEGSTGDFALPVGLIVGVTALGLLIIGVVNCVIMTQVKKKPLCLQREAKVPHLPADKARGTQGPEQQHLLITAPSSSSSSLESSASALDRRAPTRNQPQAPGVEASGAGEARASTGSSDSSPGGHGTQVNVTCIVNVCSSSDHSSQCSSQASSTMGDTDSSPSESPKDEQVPFSKEECAFRSQLETPETLLGSTEEKPLPLGVPDAGMKPS
notes: also called TNF-R2 WT
Consider B1, for which the binding result is “no binding”.
